{
  "source": "paper PMC10786891",
  "about": "“Massively parallel profiling of RNA-targeting CRISPR-Cas13d”",
  "data": [
    {"target": "T1, EsCas13d, nuclease-dead (Eubacterium siraeum, UniProt B0MS50, R295A;H300A;R849A;H854A)", "T1 sequence": "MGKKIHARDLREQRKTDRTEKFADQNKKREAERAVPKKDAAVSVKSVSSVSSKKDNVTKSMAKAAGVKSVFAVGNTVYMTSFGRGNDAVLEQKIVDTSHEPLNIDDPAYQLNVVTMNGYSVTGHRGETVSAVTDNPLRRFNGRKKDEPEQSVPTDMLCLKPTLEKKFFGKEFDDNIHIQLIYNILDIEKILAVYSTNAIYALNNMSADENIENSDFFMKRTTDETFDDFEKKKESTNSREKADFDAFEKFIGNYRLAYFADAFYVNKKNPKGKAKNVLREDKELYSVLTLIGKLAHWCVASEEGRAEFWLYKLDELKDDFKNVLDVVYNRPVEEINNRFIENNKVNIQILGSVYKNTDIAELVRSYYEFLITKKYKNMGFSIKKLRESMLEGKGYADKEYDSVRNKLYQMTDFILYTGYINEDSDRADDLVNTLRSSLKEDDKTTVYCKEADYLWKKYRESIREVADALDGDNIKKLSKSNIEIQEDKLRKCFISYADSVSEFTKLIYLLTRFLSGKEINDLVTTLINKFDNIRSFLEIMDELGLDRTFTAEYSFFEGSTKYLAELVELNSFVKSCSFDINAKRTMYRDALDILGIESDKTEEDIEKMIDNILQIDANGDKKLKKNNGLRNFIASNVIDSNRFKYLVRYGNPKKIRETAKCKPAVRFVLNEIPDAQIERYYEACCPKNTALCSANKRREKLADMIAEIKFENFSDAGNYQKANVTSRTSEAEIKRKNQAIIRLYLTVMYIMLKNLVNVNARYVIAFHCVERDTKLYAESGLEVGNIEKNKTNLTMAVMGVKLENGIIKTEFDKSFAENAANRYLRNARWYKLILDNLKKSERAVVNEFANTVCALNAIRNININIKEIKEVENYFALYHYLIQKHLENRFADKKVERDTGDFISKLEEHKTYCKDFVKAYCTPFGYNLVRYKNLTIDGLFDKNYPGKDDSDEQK", "assay": "crRNA (strand 1, pre-loaded); Mg2+; 40 mM Tris-HCl pH 7.5, 150 mM NaCl, 6 mM MgCl2, 1 mM DTT, 0.1% Tween-20, 0.2 mg/ml BSA; 25 C; 10 min per concentration, then washed", "settings": "tags: His6-TwinStrep-SUMO cleaved; N-terminal SNAP kept (SNAP-Surface 488); label: 3' end held by stalled T7 RNA polymerase", "units": {"Kd": "nM"}, "values": [
      {"binder": "target 1 MT 5'PFS GUA 3'PFS AGU (mixed) RNA 1: CACCCGUGCAAAAAUGCAGGGGUCUAAAACUGAGCGGAUAACCUCUCUAUGG RNA 2: GGGAAUGGAUCCACAUCUACGAAUUCGUACCAUAGAGAGGUUAUCCGCUCAAGUAGAUCGGAAGAGCACACGU", "Kd": "9.9 ± 0.8"},
      {"binder": "target 1 MT 5'PFS GUG 3'PFS GGC (mixed) RNA 1: CACCCGUGCAAAAAUGCAGGGGUCUAAAACUGAGCGGAUAACCUCUCUAUGG RNA 2: GGGAAUGGAUCCACAUCUACGAAUUCGUGCCAUAGAGAGGUUAUCCGCUCAGGCAGAUCGGAAGAGCACACGU", "Kd": "14 ± 2.25"},
      {"binder": "target 1 MT 5'PFS GUC 3'PFS CUG (mixed) RNA 1: CACCCGUGCAAAAAUGCAGGGGUCUAAAACUGAGCGGAUAACCUCUCUAUGG RNA 2: GGGAAUGGAUCCACAUCUACGAAUUCGUCCCAUAGAGAGGUUAUCCGCUCACUGAGAUCGGAAGAGCACACGU", "Kd": "12.8 ± 2.9"},
      {"binder": "target 1 MT 5'PFS UUG 3'PFS CAC (mixed) RNA 1: CACCCGUGCAAAAAUGCAGGGGUCUAAAACUGAGCGGAUAACCUCUCUAUGG RNA 2: GGGAAUGGAUCCACAUCUACGAAUUCUUGCCAUAGAGAGGUUAUCCGCUCACACAGAUCGGAAGAGCACACGU", "Kd": "~85"},
      {"binder": "target 1 MT 5'PFS GUA 3'PFS AGG (mixed) RNA 1: CACCCGUGCAAAAAUGCAGGGGUCUAAAACUGAGCGGAUAACCUCUCUAUGG RNA 2: GGGAAUGGAUCCACAUCUACGAAUUCGUACCAUAGAGAGGUUAUCCGCUCAAGGAGAUCGGAAGAGCACACGU", "Kd": "22.9 ± 1.4"},
      {"binder": "target 1 MT 5'PFS UUG 3'PFS CAA (mixed) RNA 1: CACCCGUGCAAAAAUGCAGGGGUCUAAAACUGAGCGGAUAACCUCUCUAUGG RNA 2: GGGAAUGGAUCCACAUCUACGAAUUCUUGCCAUAGAGAGGUUAUCCGCUCACAAAGAUCGGAAGAGCACACGU", "Kd": "~55"},
      {"binder": "target 1 MT 5'PFS AGA 3'PFS UGA (mixed) RNA 1: CACCCGUGCAAAAAUGCAGGGGUCUAAAACUGAGCGGAUAACCUCUCUAUGG RNA 2: GGGAAUGGAUCCACAUCUACGAAUUCAGACCAUAGAGAGGUUAUCCGCUCAUGAAGAUCGGAAGAGCACACGU", "Kd": "90 ± 40"},
      {"binder": "target 1 MT 5'PFS ACA 3'PFS AGA (mixed) RNA 1: CACCCGUGCAAAAAUGCAGGGGUCUAAAACUGAGCGGAUAACCUCUCUAUGG RNA 2: GGGAAUGGAUCCACAUCUACGAAUUCACACCAUAGAGAGGUUAUCCGCUCAAGAAGAUCGGAAGAGCACACGU", "Kd": "66.5 ± 24"},
      {"binder": "target 1 MT 5'PFS GUA 3'PFS AGC (mixed) RNA 1: CACCCGUGCAAAAAUGCAGGGGUCUAAAACUGAGCGGAUAACCUCUCUAUGG RNA 2: GGGAAUGGAUCCACAUCUACGAAUUCGUACCAUAGAGAGGUUAUCCGCUCAAGCAGAUCGGAAGAGCACACGU", "Kd": "6.27 ± 0.515"},
      {"binder": "target 1 C4U,U8G (mixed) RNA 1: CACCCGUGCAAAAAUGCAGGGGUCUAAAACUGAGCGGAUAACCUCUCUAUGG RNA 2: GGGAAUGGAUCCACAUCUACGAAUUCGUACCAUAGAGAGGUUAGCCGUUCACCGAGAUCGGAAGAGCACACGU", "Kd": "14.1 ± 0.8"},
      {"binder": "target 1 MT 5'PFS GUG 3'PFS GGG (mixed) RNA 1: CACCCGUGCAAAAAUGCAGGGGUCUAAAACUGAGCGGAUAACCUCUCUAUGG RNA 2: GGGAAUGGAUCCACAUCUACGAAUUCGUGCCAUAGAGAGGUUAUCCGCUCAGGGAGAUCGGAAGAGCACACGU", "Kd": "32.9 ± 2.9"},
      {"binder": "target 1 MT 5'PFS CUU 3'PFS CAC (mixed) RNA 1: CACCCGUGCAAAAAUGCAGGGGUCUAAAACUGAGCGGAUAACCUCUCUAUGG RNA 2: GGGAAUGGAUCCACAUCUACGAAUUCCUUCCAUAGAGAGGUUAUCCGCUCACACAGAUCGGAAGAGCACACGU", "Kd": "47 ± 19"},
      {"binder": "target 1 MT 5'PFS CCU 3'PFS UAC (mixed) RNA 1: CACCCGUGCAAAAAUGCAGGGGUCUAAAACUGAGCGGAUAACCUCUCUAUGG RNA 2: GGGAAUGGAUCCACAUCUACGAAUUCCCUCCAUAGAGAGGUUAUCCGCUCAUACAGAUCGGAAGAGCACACGU", "Kd": "13.4 ± 2.7"},
      {"binder": "target 1 MT 5'PFS GUG 3'PFS GGU (mixed) RNA 1: CACCCGUGCAAAAAUGCAGGGGUCUAAAACUGAGCGGAUAACCUCUCUAUGG RNA 2: GGGAAUGGAUCCACAUCUACGAAUUCGUGCCAUAGAGAGGUUAUCCGCUCAGGUAGAUCGGAAGAGCACACGU", "Kd": "25.6 ± 2.7"},
      {"binder": "target 1 MT 5'PFS AGA 3'PFS UGU (mixed) RNA 1: CACCCGUGCAAAAAUGCAGGGGUCUAAAACUGAGCGGAUAACCUCUCUAUGG RNA 2: GGGAAUGGAUCCACAUCUACGAAUUCAGACCAUAGAGAGGUUAUCCGCUCAUGUAGAUCGGAAGAGCACACGU", "Kd": "110 ± 50"},
      {"binder": "target 1 MT 5'PFS AGA 3'PFS UGC (mixed) RNA 1: CACCCGUGCAAAAAUGCAGGGGUCUAAAACUGAGCGGAUAACCUCUCUAUGG RNA 2: GGGAAUGGAUCCACAUCUACGAAUUCAGACCAUAGAGAGGUUAUCCGCUCAUGCAGAUCGGAAGAGCACACGU", "Kd": "~53.5"},
      {"binder": "target 1 MT 5'PFS CCG 3'PFS AUA (mixed) RNA 1: CACCCGUGCAAAAAUGCAGGGGUCUAAAACUGAGCGGAUAACCUCUCUAUGG RNA 2: GGGAAUGGAUCCACAUCUACGAAUUCCCGCCAUAGAGAGGUUAUCCGCUCAAUAAGAUCGGAAGAGCACACGU", "Kd": "5.1 ± 1.45"},
      {"binder": "target 1 MT 5'PFS GUC 3'PFS CUA (mixed) RNA 1: CACCCGUGCAAAAAUGCAGGGGUCUAAAACUGAGCGGAUAACCUCUCUAUGG RNA 2: GGGAAUGGAUCCACAUCUACGAAUUCGUCCCAUAGAGAGGUUAUCCGCUCACUAAGAUCGGAAGAGCACACGU", "Kd": "17.5 ± 4"},
      {"binder": "target 1 MT 5'PFS AAU 3'PFS UAU (mixed) RNA 1: CACCCGUGCAAAAAUGCAGGGGUCUAAAACUGAGCGGAUAACCUCUCUAUGG RNA 2: GGGAAUGGAUCCACAUCUACGAAUUCAAUCCAUAGAGAGGUUAUCCGCUCAUAUAGAUCGGAAGAGCACACGU", "Kd": "72 ± 27"},
      {"binder": "target 1 MT 5'PFS UUG 3'PFS CAU (mixed) RNA 1: CACCCGUGCAAAAAUGCAGGGGUCUAAAACUGAGCGGAUAACCUCUCUAUGG RNA 2: GGGAAUGGAUCCACAUCUACGAAUUCUUGCCAUAGAGAGGUUAUCCGCUCACAUAGAUCGGAAGAGCACACGU", "Kd": "41 ± 13.5"},
      {"binder": "target 1 MT 5'PFS GUC 3'PFS CUU (mixed) RNA 1: CACCCGUGCAAAAAUGCAGGGGUCUAAAACUGAGCGGAUAACCUCUCUAUGG RNA 2: GGGAAUGGAUCCACAUCUACGAAUUCGUCCCAUAGAGAGGUUAUCCGCUCACUUAGAUCGGAAGAGCACACGU", "Kd": "13.8 ± 2.6"},
      {"binder": "target 1 C6A,C22U (mixed) RNA 1: CACCCGUGCAAAAAUGCAGGGGUCUAAAACUGAGCGGAUAACCUCUCUAUGG RNA 2: GGGAAUGGAUCCACAUCUACGAAUUCGUAUCAUAGAGAGGUUAUCAGCUCACCGAGAUCGGAAGAGCACACGU", "Kd": "11.6 ± 0.7"},
      {"binder": "target 1 MT 5'PFS GUA 3'PFS AGA (mixed) RNA 1: CACCCGUGCAAAAAUGCAGGGGUCUAAAACUGAGCGGAUAACCUCUCUAUGG RNA 2: GGGAAUGGAUCCACAUCUACGAAUUCGUACCAUAGAGAGGUUAUCCGCUCAAGAAGAUCGGAAGAGCACACGU", "Kd": "12.7 ± 0.8"},
      {"binder": "target 1 MT 5'PFS GUC 3'PFS CUC (mixed) RNA 1: CACCCGUGCAAAAAUGCAGGGGUCUAAAACUGAGCGGAUAACCUCUCUAUGG RNA 2: GGGAAUGGAUCCACAUCUACGAAUUCGUCCCAUAGAGAGGUUAUCCGCUCACUCAGAUCGGAAGAGCACACGU", "Kd": "39.5 ± 12.5"},
      {"binder": "target 1 MT 5'PFS CCU 3'PFS UAG (mixed) RNA 1: CACCCGUGCAAAAAUGCAGGGGUCUAAAACUGAGCGGAUAACCUCUCUAUGG RNA 2: GGGAAUGGAUCCACAUCUACGAAUUCCCUCCAUAGAGAGGUUAUCCGCUCAUAGAGAUCGGAAGAGCACACGU", "Kd": "28 ± 11"},
      {"binder": "target 1 G15C,A16C (mixed) RNA 1: CACCCGUGCAAAAAUGCAGGGGUCUAAAACUGAGCGGAUAACCUCUCUAUGG RNA 2: GGGAAUGGAUCCACAUCUACGAAUUCGUACCAUAGCCAGGUUAUCCGCUCACCGAGAUCGGAAGAGCACACGU", "Kd": "~90"},
      {"binder": "target 1 MT 5'PFS CAA 3'PFS AGU (mixed) RNA 1: CACCCGUGCAAAAAUGCAGGGGUCUAAAACUGAGCGGAUAACCUCUCUAUGG RNA 2: GGGAAUGGAUCCACAUCUACGAAUUCCAACCAUAGAGAGGUUAUCCGCUCAAGUAGAUCGGAAGAGCACACGU", "Kd": "~52"},
      {"binder": "target 1 MT 5'PFS AAU 3'PFS UAG (mixed) RNA 1: CACCCGUGCAAAAAUGCAGGGGUCUAAAACUGAGCGGAUAACCUCUCUAUGG RNA 2: GGGAAUGGAUCCACAUCUACGAAUUCAAUCCAUAGAGAGGUUAUCCGCUCAUAGAGAUCGGAAGAGCACACGU", "Kd": "41.5 ± 20"}
    ]}
  ]
}
